Assay results: patent US20090311265A1

Biological target: HA of BPL-inactivated virus preparation of strain A/New Caledonia/20/99 (H1N1) (influenza A virus A/New Caledonia/20/99 (H1N1))
Experiment: ELISA, coated inactivated virus, IgG 5 µg/ml

CR3014 (antibody)
OD 492 nm: 0.09 OD 492 nm

CR6261 (antibody)
OD 492 nm: 1.46 OD 492 nm
